In US20240279353A1 (KIROMIC BIOPHARMA, published 2024) one finds EC50 data, which are given here for 2 molecules.

Assay in all cases: EC50 binding assay (ELISA screening, format not stated)
Assay [1] has as its target Mesothelin Isoform 2 (IsoMSLN), as used in the EC50 binding assay (human) (UniProt Q13421).
Assay [2] addresses Mesothelin Isoform 1, as used in the EC50 binding assay (human) (UniProt Q13421).
Assay [3] has as its target T1, Mesothelin Isoform 2 (IsoMSLN), as used in the EC50 binding assay (human, UniProt Q13421 37-598).
T1 construct: also called MSLN Isoform 2; mesothelin isoform-2 polypeptide

T1 sequence (Q13421 37-606 limits assumed, form in doubt): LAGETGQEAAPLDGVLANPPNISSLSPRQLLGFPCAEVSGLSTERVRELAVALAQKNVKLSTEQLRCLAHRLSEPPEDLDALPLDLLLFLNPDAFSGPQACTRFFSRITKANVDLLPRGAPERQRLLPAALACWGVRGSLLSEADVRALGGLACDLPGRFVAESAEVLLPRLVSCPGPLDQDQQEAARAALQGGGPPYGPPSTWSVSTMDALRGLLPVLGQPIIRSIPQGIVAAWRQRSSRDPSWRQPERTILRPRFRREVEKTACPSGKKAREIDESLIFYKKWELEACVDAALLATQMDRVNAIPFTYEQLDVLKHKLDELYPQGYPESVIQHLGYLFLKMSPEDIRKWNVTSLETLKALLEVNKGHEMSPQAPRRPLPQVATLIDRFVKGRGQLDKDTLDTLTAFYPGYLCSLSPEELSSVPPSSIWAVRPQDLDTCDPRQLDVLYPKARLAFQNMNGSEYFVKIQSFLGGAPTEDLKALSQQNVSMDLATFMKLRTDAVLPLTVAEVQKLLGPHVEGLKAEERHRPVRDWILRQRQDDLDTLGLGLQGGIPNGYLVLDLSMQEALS
Mesothelin Isoform 2 (IsoMSLN), as used in the EC50 binding assay (human), sequence (Q13421 37-606 limits assumed, form in doubt): as above
Mesothelin Isoform 1, as used in the EC50 binding assay (human), sequence (Q13421 other isoform, or with tags, fused parts or gaps limits assumed): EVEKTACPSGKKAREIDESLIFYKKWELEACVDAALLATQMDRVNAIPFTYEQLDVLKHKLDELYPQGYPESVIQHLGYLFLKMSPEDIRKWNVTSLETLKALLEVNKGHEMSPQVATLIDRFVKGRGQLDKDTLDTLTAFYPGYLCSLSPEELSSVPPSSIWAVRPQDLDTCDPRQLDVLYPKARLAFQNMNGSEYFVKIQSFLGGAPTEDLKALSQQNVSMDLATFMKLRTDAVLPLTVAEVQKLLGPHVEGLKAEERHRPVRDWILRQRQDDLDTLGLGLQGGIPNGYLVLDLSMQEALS

With “anti-MSLN antibody clone K1 (commercially available)”, the EC50 was determined as 0.11 µg/mL in assay [1] and 0.15 µg/mL in assay [2].

B1: anti-IsoMSLN monoclonal antibody clone 1B6 (antibody, V domains shown)
VH: EVKLVESGGGLVKPGGSLKLSCEASGFTFSRYAMSWVRHTPEKRLAWVASITFGGDPYYPDGLKGRFTISRDNTRNILYLQMNSLRSEDTAMYYCVRHESWFAYWGQGTLVTVSA
VL: DVLMTQTPLSLPVSLGEQVSISCRSSQTIVHTDGNIYLEWYLQNPGQSPRLLIYKISNRFSGVPDRFSGSGSGTDFTLKISRVEAEDLGIYYCFQASHVPYTFGGGTKLEIK
notes: also called IB6
Consider B1, for which a half-maximal response in assay [3] (EC50) required 0.073 µg/mL.

Usually EC50 stands for the concentration needed to bring the measured effect to its halfway point.
